± gives the uncertainty stated by the source.
Test: protein stability index of a GFP-peptide fusion (yeast GPS) (PSI 1-4); higher = more stable; sorted into four equal gates, so the index is relative within each strain
How it was run: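 For each peptide, the protein stability index sums the read frequency in every gate after multiplying it by the gate number. Read frequencies came from plasmids that were PCR-amplified from each gate and Illumina-sequenced, with reads assigned to strains by barcodes. The gates were four equal bins of GFP/Cherry fluorescence ratio applied to mid-log yeast in leucine-free medium carrying a pooled library of tiled 17-residue yeast protein peptides fused downstream of GFP on a Cherry-expressing plasmid.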

## SRIYKTIKVAGTPLLEV [SNU114]
doa10∆
  protein stability index: 2.21 ± 0.052
pdr5∆
  protein stability index: 2.38 ± 0.055
san1∆
  protein stability index: 2.03 ± 0.071
ubr1∆
  protein stability index: 2.23 ± 0.053

## SRKAHGLNAKQLYKARM [POP1]
doa10∆
  protein stability index: 3.03 ± 0.094
pdr5∆
  protein stability index: 3.4 ± 0.12
san1∆
  protein stability index: 2.96 ± 0.05
ubr1∆
  protein stability index: 2.83 ± 0.034

## SRKGIAFGLGAIMSKSS [ECM29]
doa10∆
  protein stability index: 1.61 ± 0.058
pdr5∆
  protein stability index: 1.86 ± 0.054
san1∆
  protein stability index: 1.64 ± 0.08
ubr1∆
  protein stability index: 1.74 ± 0.036

## SRKRAKKMTKKAKRSNL [PRP8]
doa10∆
  protein stability index: 2.94 ± 0.07
pdr5∆
  protein stability index: 2.16 ± 0.069
san1∆
  protein stability index: 2.11 ± 0.094
ubr1∆
  protein stability index: 2.52 ± 0.082

## SRKRKPKSASNTSSKRQ [IRR1]
doa10∆
  protein stability index: 2.86 ± 0.1
pdr5∆
  protein stability index: 2.7 ± 0.14
san1∆
  protein stability index: 2.89 ± 0.085
ubr1∆
  protein stability index: 3.09 ± 0.069

## SRPASYGYFSVGKRVPI [SIR4]
doa10∆
  protein stability index: 2.31 ± 0.19
pdr5∆
  protein stability index: 2.14 ± 0.11
san1∆
  protein stability index: 2.15 ± 0.13

## SRRWRQRKNIQSLELMI [BRR2]
doa10∆
  protein stability index: 1.39 ± 0.096
pdr5∆
  protein stability index: 1.88 ± 0.073
san1∆
  protein stability index: 2.15 ± 0.15
ubr1∆
  protein stability index: 1.29 ± 0.057

## SRTFDKYSKLVDNVTLE [SRP72]
doa10∆
  protein stability index: 3.37 ± 0.12
pdr5∆
  protein stability index: 3.36 ± 0.1
san1∆
  protein stability index: 3.44 ± 0.094
ubr1∆
  protein stability index: 3.3 ± 0.1

## SRYILFEIIFPPTDTNV [POP5]
doa10∆
  protein stability index: 1.54 ± 0.069
pdr5∆
  protein stability index: 1.41 ± 0.052
san1∆
  protein stability index: 1.53 ± 0.086
ubr1∆
  protein stability index: 1.77 ± 0.047

## SSFEENNDLESVSMLLQ [RRI2]
doa10∆
  protein stability index: 2.98 ± 0.071
pdr5∆
  protein stability index: 3.23 ± 0.063
san1∆
  protein stability index: 3 ± 0.048
ubr1∆
  protein stability index: 3.13 ± 0.039

## SSFVRQELAKSIRSRRP [PRE1]
doa10∆
  protein stability index: 2.08 ± 0.12
pdr5∆
  protein stability index: 2.21 ± 0.074
san1∆
  protein stability index: 1.78 ± 0.23
ubr1∆
  protein stability index: 2.12 ± 0.065

## SSKLYQMQQQQQAQAQA [GAL11]
doa10∆
  protein stability index: 1.89 ± 0.071
pdr5∆
  protein stability index: 2.09 ± 0.051
san1∆
  protein stability index: 1.9 ± 0.082
ubr1∆
  protein stability index: 1.82 ± 0.057

## SSKTSQPKPLFSFGKSD [YOR098C/NUP1]
doa10∆
  protein stability index: 2.16 ± 0.043
pdr5∆
  protein stability index: 2.4 ± 0.027
san1∆
  protein stability index: 2.19 ± 0.047
ubr1∆
  protein stability index: 2.16 ± 0.035

## SSLASQDVDFYKNLDRG [RRP6]
doa10∆
  protein stability index: 1.31 ± 0.084
pdr5∆
  protein stability index: 1.37 ± 0.067
ubr1∆
  protein stability index: 1.64 ± 0.088

## SSLVRRNSVKLLSKLLL [YCS4]
doa10∆
  protein stability index: 1.68 ± 0.047
pdr5∆
  protein stability index: 1.61 ± 0.04
san1∆
  protein stability index: 1.64 ± 0.085
ubr1∆
  protein stability index: 1.39 ± 0.027

## SSQLNKLTDEQSSLDVA [SIR3]
doa10∆
  protein stability index: 2.66 ± 0.088
pdr5∆
  protein stability index: 2.93 ± 0.081
san1∆
  protein stability index: 2.65 ± 0.09
ubr1∆
  protein stability index: 2.97 ± 0.056

## SSQVREHVKELLKYSNE [RPL1A]
doa10∆
  protein stability index: 1.63 ± 0.077
pdr5∆
  protein stability index: 2.23 ± 0.06
san1∆
  protein stability index: 2.47 ± 0.085
ubr1∆
  protein stability index: 2.13 ± 0.047

## SSSDFRLHYYPKDPSNV [BRR2]
doa10∆
  protein stability index: 3.21 ± 0.066
pdr5∆
  protein stability index: 3.29 ± 0.06
san1∆
  protein stability index: 3.47 ± 0.052
ubr1∆
  protein stability index: 3.15 ± 0.042

## SSTQDVILRKISMLVTQ [CSI1]
doa10∆
  protein stability index: 1.62 ± 0.054
pdr5∆
  protein stability index: 1.75 ± 0.054
san1∆
  protein stability index: 1.91 ± 0.085
ubr1∆
  protein stability index: 1.77 ± 0.041

## SSVVSEPKKPSFTFASS [YOR098C/NUP1]
doa10∆
  protein stability index: 3 ± 0.049
pdr5∆
  protein stability index: 3.12 ± 0.038
san1∆
  protein stability index: 3.01 ± 0.044
ubr1∆
  protein stability index: 2.92 ± 0.034

## SSVYRLKFAVQVDKVTK [RPL26A]
doa10∆
  protein stability index: 1.67 ± 0.16
san1∆
  protein stability index: 2.71 ± 0.24
ubr1∆
  protein stability index: 2.78 ± 0.27

## SSYEEFLERFDFYTRHH [ITC1]
doa10∆
  protein stability index: 3.19 ± 0.13
pdr5∆
  protein stability index: 3.1 ± 0.083
san1∆
  protein stability index: 3.03 ± 0.073
ubr1∆
  protein stability index: 3.1 ± 0.081

## STEEIEYIELEYRDLYT [YMR129W/POM152]
doa10∆
  protein stability index: 2.56 ± 0.11
pdr5∆
  protein stability index: 3.04 ± 0.14
san1∆
  protein stability index: 2.94 ± 0.13
ubr1∆
  protein stability index: 2.72 ± 0.05

## STFGFNNSAPNNTNNAN [YJL041W/NSP1]
doa10∆
  protein stability index: 3.13 ± 0.042
pdr5∆
  protein stability index: 3.18 ± 0.047
san1∆
  protein stability index: 2.96 ± 0.039
ubr1∆
  protein stability index: 3.19 ± 0.038

## STGCVVGLSQPDAKIQV [YMR129W/POM152]
doa10∆
  protein stability index: 2.29 ± 0.15
pdr5∆
  protein stability index: 2.47 ± 0.21
san1∆
  protein stability index: 2.47 ± 0.063
ubr1∆
  protein stability index: 2.42 ± 0.091

## STGLKNASDALKGRVVE [RPS1B]
doa10∆
  protein stability index: 3.21 ± 0.15
pdr5∆
  protein stability index: 3.04 ± 0.099
san1∆
  protein stability index: 2.91 ± 0.12
ubr1∆
  protein stability index: 2.67 ± 0.07

## STISAREIQTAVRLILP [HTB1]
doa10∆
  protein stability index: 2.13 ± 0.11
pdr5∆
  protein stability index: 2.31 ± 0.12
san1∆
  protein stability index: 2.52 ± 0.087
ubr1∆
  protein stability index: 2.38 ± 0.074

## STKELKFSDIIQGISKM [BRN1]
doa10∆
  protein stability index: 3.16 ± 0.098
pdr5∆
  protein stability index: 3.33 ± 0.084
san1∆
  protein stability index: 3.18 ± 0.072
ubr1∆
  protein stability index: 3.35 ± 0.085

## STKVENSAIIQNLRKEL [YIL149C/MLP2]
doa10∆
  protein stability index: 3.2 ± 0.084
pdr5∆
  protein stability index: 2.88 ± 0.12
san1∆
  protein stability index: 3.28 ± 0.071
ubr1∆
  protein stability index: 3.3 ± 0.051

## STLLCTDLESKSRMINF [SNU114]
doa10∆
  protein stability index: 2.62 ± 0.05
pdr5∆
  protein stability index: 2.96 ± 0.052
san1∆
  protein stability index: 2.67 ± 0.044
ubr1∆
  protein stability index: 2.79 ± 0.038

## STMGTPTVHNSTAAAPI [PGD1]
doa10∆
  protein stability index: 2.83 ± 0.095
pdr5∆
  protein stability index: 3.07 ± 0.059
san1∆
  protein stability index: 2.76 ± 0.06
ubr1∆
  protein stability index: 2.93 ± 0.049

## STSGDPSEFHCLQDALD [SSN2]
doa10∆
  protein stability index: 3.07 ± 0.16
pdr5∆
  protein stability index: 3.1 ± 0.12
san1∆
  protein stability index: 3.08 ± 0.068
ubr1∆
  protein stability index: 3.43 ± 0.11

## STTEHINIDDLLYELTA [YJL039C/NUP192]
doa10∆
  protein stability index: 2.82 ± 0.11
pdr5∆
  protein stability index: 2.61 ± 0.092
san1∆
  protein stability index: 2.43 ± 0.099
ubr1∆
  protein stability index: 3.05 ± 0.053

## STTQEILEFITAAQVAN [RPC34]
doa10∆
  protein stability index: 2.65 ± 0.1
pdr5∆
  protein stability index: 1.71 ± 0.056
san1∆
  protein stability index: 1.9 ± 0.088
ubr1∆
  protein stability index: 1.19 ± 0.048

## STVAKNVSFVLPDEKSD [YCG1]
doa10∆
  protein stability index: 3.2 ± 0.058
pdr5∆
  protein stability index: 3.16 ± 0.037
san1∆
  protein stability index: 3.09 ± 0.041
ubr1∆
  protein stability index: 3.01 ± 0.038

## STVASALDTNGTSATTE [SIR4]
doa10∆
  protein stability index: 2.2 ± 0.075
pdr5∆
  protein stability index: 2.15 ± 0.065
san1∆
  protein stability index: 2.91 ± 0.064
ubr1∆
  protein stability index: 1.88 ± 0.045

## STVKGSVDLEKLAFGLT [TAF14]
doa10∆
  protein stability index: 3.58 ± 0.13
pdr5∆
  protein stability index: 3.45 ± 0.091
san1∆
  protein stability index: 3.61 ± 0.057
ubr1∆
  protein stability index: 3.67 ± 0.072

## STVSANHSNNDIPTIAD [BRN1]
doa10∆
  protein stability index: 3.22 ± 0.097
pdr5∆
  protein stability index: 3.03 ± 0.093
san1∆
  protein stability index: 3.02 ± 0.069
ubr1∆
  protein stability index: 3.24 ± 0.074

## SVAEVFQKAQGSYAGHR [YCG1]
doa10∆
  protein stability index: 1.9 ± 0.11
pdr5∆
  protein stability index: 1.38 ± 0.18
san1∆
  protein stability index: 1.65 ± 0.24
ubr1∆
  protein stability index: 1.5 ± 0.072

## SVDIGVETILSGKARIC [FAS2]
doa10∆
  protein stability index: 2.7 ± 0.12
pdr5∆
  protein stability index: 2.75 ± 0.11
san1∆
  protein stability index: 1.8 ± 0.12
ubr1∆
  protein stability index: 2.78 ± 0.069

## SVDITGGPWFTDGELDI [RPC34]
doa10∆
  protein stability index: 3.04 ± 0.14
pdr5∆
  protein stability index: 3.43 ± 0.12
san1∆
  protein stability index: 3.12 ± 0.13
ubr1∆
  protein stability index: 3.18 ± 0.078

## SVDKKVDSGEERNEQER [SWI3]
doa10∆
  protein stability index: 3.53 ± 0.092
pdr5∆
  protein stability index: 3.35 ± 0.14
san1∆
  protein stability index: 3.25 ± 0.11
ubr1∆
  protein stability index: 3.54 ± 0.077

## SVDMSALKDPQTDADRV [RIP1]
doa10∆
  protein stability index: 3.27 ± 0.079
pdr5∆
  protein stability index: 3.68 ± 0.23
san1∆
  protein stability index: 3.2 ± 0.23
ubr1∆
  protein stability index: 3.56 ± 0.15

## SVEAYLVSLFEDTNLAA [HHT1]
pdr5∆
  protein stability index: 2.86 ± 0.26
san1∆
  protein stability index: 2.59 ± 0.15
ubr1∆
  protein stability index: 3.06 ± 0.14

## SVFDATSDPVMHKQLAY [RPN1]
doa10∆
  protein stability index: 2.28 ± 0.11
pdr5∆
  protein stability index: 2.17 ± 0.077
san1∆
  protein stability index: 1.79 ± 0.14
ubr1∆
  protein stability index: 1.96 ± 0.082

## SVFNAELLKLLNDEYNY [YCS4]
doa10∆
  protein stability index: 1.76 ± 0.053
pdr5∆
  protein stability index: 2.31 ± 0.062
san1∆
  protein stability index: 1.95 ± 0.095
ubr1∆
  protein stability index: 2.47 ± 0.04

## SVGTDPMPIITFLSEWG [RPB2]
doa10∆
  protein stability index: 2.7 ± 0.1
pdr5∆
  protein stability index: 1.99 ± 0.057
san1∆
  protein stability index: 1.57 ± 0.094
ubr1∆
  protein stability index: 2.22 ± 0.062

## SVIPLKGRYAPETGDHV [RRP4]
doa10∆
  protein stability index: 2.53 ± 0.059
pdr5∆
  protein stability index: 2.52 ± 0.052
san1∆
  protein stability index: 2.67 ± 0.073
ubr1∆
  protein stability index: 2.69 ± 0.041

## SVIVKFHSEPDRDENWI [LIN1]
doa10∆
  protein stability index: 2.69 ± 0.072
pdr5∆
  protein stability index: 3.08 ± 0.071
san1∆
  protein stability index: 2.96 ± 0.056
ubr1∆
  protein stability index: 2.75 ± 0.044

## SVKKAGASINSMKANTS [ARP7]
doa10∆
  protein stability index: 2.07 ± 0.052
pdr5∆
  protein stability index: 2.46 ± 0.05
san1∆
  protein stability index: 2.42 ± 0.054
ubr1∆
  protein stability index: 2.25 ± 0.037

— the supplement of paper PMC9732359
